Data as given in PMC7825114, “Studying GGDEF Domain in the Act: Minimize Conformational Frustration to Prevent Artefacts” (Life, 2021).

Target: the molecule itself
Assay: SEC; FPLC (AKTA system), buffer A (Table S1); multiple runs on diluted protein to allow c-di-GMP to dissociate on the column

B1: PleD from C. crescentus (enzyme, UniProt Q9A5I5 1-454, looked up)
chain: MSARILVVDDIEANVRLLEAKLTAEYYEVSTAMDGPTALAMAARDLPDIILLDVMMPGMDGFTVCRKLKDDPTTRHIPVVLITALDGRGDRIQGLESGASDFLTKPIDDVMLFARVRSLTRFKLVIDELRQREASGRRMGVIAGAAARLDGLGGRVLIVDDNERQAQRVAAELGVEHRPVIESDPEKAKISAGGPVDLVIVNAAAKNFDGLRFTAALRSEERTRQLPVLAMVDPDDRGRMVKALEIGVNDILSRPIDPQELSARVKTQIQRKRYTDYLRNNLDHSLELAVTDQLTGLHNRRYMTGQLDSLVKRATLGGDPVSALLIDIDFFKKINDTFGHDIGDEVLREFALRLASNVRAIDLPCRYGGEEFVVIMPDTALADALRIAERIRMHVSGSPFTVAHGREMLNVTISIGVSATAGEGDTPEALLKRADEGVYQAKASGRNAVVGKAA
notes: PleD, diguanylate cyclase of C. crescentus; In the functional assay the protein was also used after treatment with NaF and BeCl2 (beryllium fluoride, mimics phosphorylation); source: E. coli BL21 (DE3), purified (Ni2+-IMAC HisTrap, multiple FPLC runs)
  stoichiometry N: 2
